Measured values from FireProtDB (doi:10.1021/bi00072a011).
Several values for one entry are separate records, joined by “and”; a condition that tells them apart may be missing. Equal entries are not always repeated.

B1: Tryptophan synthase alpha chain, P00929 (parent)
chain: MERYENLFAQLNDRREGAFVPFVTLGDPGIEQSLKIIDTLIDAGADALELGVPFSDPLADGPTIQNANLRAFAAGVTPAQCFEMLALIREKHPTIPIGLLMYANLVFNNGIDAFYARCEQVGVDSVLVADVPVEESAPFRQAALRHNIAPIFICPPNADDDLLRQVASYGRGYTYLLSRSGVTGAENRGALPLHHLIEKLKEYHAAPALQGFGISSPEQVSAAVRAGAAGAISGSAIVKIIEKNLASPKQMLAELRSFVSAMKAASRA

Variants of: B1
Conditions: Salmonella typhimurium (strain LT2 / SGSC1412 / ATCC 700720); pH 7.8; 25 °C; Urea; CD; Potassium phosphate 10 mM; transition: 3; structure 2WSY; whole UniProt chain shown

Variant | ddG of mutation (higher = less stable) | denaturant m value | denaturant midpoint (higher = more stable) | unfolding free energy
MERYENLFAQLNDRREGGFVPFVTLGDPGIEQSLKIIDTLIDAGADALELGVPFSDPLADGPTIQNANLRAFAAGVTPAQCFEMLALIREKHPTIPIGLLMYANLVFNNGIDAFYARCEQVGVDSVLVADVPVEESAPFRQAALRHNIAPIFICPPNADDDLLRQVASYGRGYTYLLSRSGVTGAENRGALPLHHLIEKLKEYHAAPALQGFGISSPEQVSAAVRAGAAGAISGSAIVKIIEKNLASPKQMLAELRSFVSAMKAASRA [A18G] | 4.1 kcal/mol | 1.7 kcal/mol/M | 1.88 M | 3.3 kcal/mol
MERYENLFAQLNDRREGAFVPFVTLGDPGIEQSLKIIDTLIDAGADALELGVPFSDPLADGPTIQNANLRAFAAGVTPAQCFEMLALIREKHPTIPIGLLMYANLVFNNGIDAFYARCEQVGVDSVLVADVPVEESAPFRQAALRHNIAPIFICPPNADDDLLRQVASYGRGYTYLLSRSGVTGAENRGALPLHHLIEKLKEYHAAPAVQGFGISSPEQVSAAVRAGAAGAISGSAIVKIIEKNLASPKQMLAELRSFVSAMKAASRA [L209V] | 3.4 kcal/mol and 2 kcal/mol | 1.7 kcal/mol/M and 1.1 kcal/mol/M | 2.3 M and 3.44 M | 4 kcal/mol and 3.8 kcal/mol
MERYENLFAQLNDRREGAFVPFVTLGDPGIEQSLKIIDTLIDAGADALELGVPFSDPLADGPTIQNANLRAFAAGVTPAQCFEMLALIREKHPTIPIGLLMYANLVFNNGIDAFYARCEQVGVDSVLVADVPVEESAPFRQAALRHNIAPIFICPPNADDDLLRQVASYGRGYTYLLSRSGVTGAENRGALPLHHLIEKLKEYHAAPALQGFGISSPEQVSAAVRAGAAGAVSGSAIVKIIEKNLASPKQMLAELRSFVSAMKAASRA [I232V] | 3.9 kcal/mol and 1.5 kcal/mol | 1.5 kcal/mol/M and 1.3 kcal/mol/M | 2.31 M and 3.28 M | 3.5 kcal/mol and 4.3 kcal/mol
MERYENLFAQLNDRREGGFVPFVTLGDPGIEQSLKIIDTLIDAGADALELGVPFSDPLADGPTIQNANLRAFAAGVTPAQCFEMLALIREKHPTIPIGLLMYANLVFNNGIDAFYARCEQVGVDSVLVADVPVEESAPFRQAALRHNIAPIFICPPNADDDLLRQVASYGRGYTYLLSRSGVTGAENRGALPLHHLIEKLKEYHAAPALQGFGISSPEQVSAAVRAGAAGAVSGSAIVKIIEKNLASPKQMLAELRSFVSAMKAASRA [A18G I232V] |  | 0.9 kcal/mol/M and 1.6 kcal/mol/M | 2.08 M and 3.46 M | 1.9 kcal/mol and 5.6 kcal/mol
MERYENLFAQLNDRREGVFVPFVTLGDPGIEQSLKIIDTLIDAGADALELGVPFSDPLADGPTIQNANLRAFAAGVTPAQCFEMLALIREKHPTIPIGLLMYANLVFNNGIDAFYARCEQVGVDSVLVADVPVEESAPFRQAALRHNIAPIFICPPNADDDLLRQVASYGRGYTYLLSRSGVTGAENRGALPLHHLIEKLKEYHAAPALQGFGISSPEQVSAAVRAGAAGAISGSAIVKIIEKNLASPKQMLAELRSFVSAMKAASRA [A18V] |  | 1.5 kcal/mol/M | 3.77 M and 2.24 M | 5.8 kcal/mol and 3.3 kcal/mol
MERYENLFAQLNDRREGVFVPFVTLGDPGIEQSLKIIDTLIDAGADALELGVPFSDPLADGPTIQNANLRAFAAGVTPAQCFEMLALIREKHPTIPIGLLMYANLVFNNGIDAFYARCEQVGVDSVLVADVPVEESAPFRQAALRHNIAPIFICPPNADDDLLRQVASYGRGYTYLLSRSGVTGAENRGALPLHHLIEKLKEYHAAPALQGFGISSPEQVSAAVRAGAAGAVSGSAIVKIIEKNLASPKQMLAELRSFVSAMKAASRA [A18V I232V] |  | 2.1 kcal/mol/M and 1.8 kcal/mol/M | 2.12 M and 3.73 M | 4.4 kcal/mol and 6.8 kcal/mol
MERYENLFAQLNDRREGAFVPFVTLGDPGIEQSLKIIDTLIDAGADALELGVPFSDPLADGPTIQNANLRAFAAGVTPAQCFEMLALIREKHPTIPIGLLMYANLVFNNGIDAFYARCEQVGVDSVLVADVPVEESAPFRQAALRHNIAPIFICPPNADDDLLRQVASYGRGYTQLLSRSGVTGAENRGALPLHHLIEKLKEYHAAPALQGFGISSPEQVSAAVRAGAAGAISGSAIVKIIEKNLASPKQMLAELRSFVSAMKAASRA [Y175Q] |  | 2.9 kcal/mol/M and 2.7 kcal/mol/M | 2.05 M and 2.91 M | 6 kcal/mol and 7.9 kcal/mol
MERYENLFAQLNDRREGAFVPFVTLGDPGIEQSLKIIDTLIDAGADALELGVPFSDPLADGPTIQNANLRAFAAGVTPAQCFEMLALIREKHPTIPIGLLMYANLVFNNGIDAFYARCEQVGVDSVLVADVPVEESAPFRQAALRHNIAPIFICPPNADDDLLRQVASYGRGYTQLLSRSGVTGAENRGALPLHHLIEKLKEYHAAPAVQGFGISSPEQVSAAVRAGAAGAISGSAIVKIIEKNLASPKQMLAELRSFVSAMKAASRA [Y175Q L209V] |  | 1.6 kcal/mol/M and 2.2 kcal/mol/M | 2.23 M and 4.32 M | 3.6 kcal/mol and 9.7 kcal/mol
